From article PMC5463187

Molecular target: RSV strain A2 pre-fusion F, single-chain triple mutant (SC-TM) construct (respiratory syncytial virus subgroup A strain A2)
Experiment: crystal structure

Q: For “RSV strain A2 pre-fusion F, single-chain triple mutant (SC-TM) construct (natural protein)”, which stoichiometry N is on record?
A: 3
